Patent US20230295338A1 (YMMUNOBIO, published 2023)

Legend:
human CEACAM1 = biological target: T1, human CEACAM1 (human, UniProt P13688 35-526); test: flow cytometry on CHO transfectants
T1 construct: Expressed on CHO transfectants; also called huCEACAM1; CHO-CEACAM1
T1 sequence: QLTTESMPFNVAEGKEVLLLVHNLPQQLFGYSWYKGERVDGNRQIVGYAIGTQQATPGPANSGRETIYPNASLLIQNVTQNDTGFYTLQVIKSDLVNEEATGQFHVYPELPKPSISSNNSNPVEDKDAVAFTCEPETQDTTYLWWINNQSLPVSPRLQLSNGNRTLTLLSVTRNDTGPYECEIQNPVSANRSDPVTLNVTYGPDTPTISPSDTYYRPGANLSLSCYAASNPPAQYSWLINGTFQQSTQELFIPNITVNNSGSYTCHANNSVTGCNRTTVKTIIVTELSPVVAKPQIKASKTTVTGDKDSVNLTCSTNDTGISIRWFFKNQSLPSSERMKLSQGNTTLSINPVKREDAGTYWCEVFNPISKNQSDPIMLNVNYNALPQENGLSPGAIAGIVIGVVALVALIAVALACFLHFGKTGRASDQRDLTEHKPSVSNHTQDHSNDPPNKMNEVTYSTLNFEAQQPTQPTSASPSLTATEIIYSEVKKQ
Procedure: (§1) After washing, FITC-labeled secondary goat anti mouse antibody was applied. Cell surface binding was analyzed utilizing a FACScalibur flow cytometer (Becton Dickinson).

human CEACAM3 = biological target: T2, human CEACAM3 (human, UniProt P40198 35-252); test: flow cytometry on CHO transfectants
T2 construct: whole, on cells; also called huCEACAM3; CHO transfectants expressing human CEACAM3
T2 sequence (looked up): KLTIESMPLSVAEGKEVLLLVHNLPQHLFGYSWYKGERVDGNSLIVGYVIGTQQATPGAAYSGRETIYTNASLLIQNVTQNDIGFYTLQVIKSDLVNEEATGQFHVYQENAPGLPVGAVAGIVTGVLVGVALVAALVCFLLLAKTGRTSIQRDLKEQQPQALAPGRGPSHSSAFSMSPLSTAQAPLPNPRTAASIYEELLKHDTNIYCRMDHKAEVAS
Procedure: as §1

CEACAM1-dN-Fc = biological target: T3, CEACAM1-dN-Fc (human, UniProt P13688 143-428, limits assumed); test: solid phase ELISA, CEACAM-Fc coated (FIG. 19)
T3 construct: Human CEACAM1 extracellular part without the N domain, fused to Fc; also called CEACAM1 variant lacking the N domain; not shown: human IgG Fc

[1] = biological target: T4, peptide P-Q-Q-L-F-G-Y-S-W-Y (human); test: solid phase peptide ELISA, mAb 5 µg/ml (FIG. 20)
T4 construct: coated on the ELISA plate
T4 peptide: PQQLFGYSWY
Procedure: After three times washing with PBS, samples were incubated with goat anti mouse-HRP (Jackson ImmunoResearch, 1:10.000 dilution in 1% BSA/PBS, 100 µl/well). Then plates were washed three times with PBS, developed with 100 µl TMB substrate, blocked with 100 µl 0.2 M H2SO4 and measured by the TECAN-ELISA reader sunrise at 450 nm. Samples were run in triplicates. Results shown are representative for three independent repeats.

[2] = biological target: T5, human CEACAM1-Fc fusion protein (human, UniProt P13688 35-428); test: solid phase ELISA, CEACAM-Fc coated, mAb 5 µg/ml (FIG. 19)
T5 construct: Said to comprise the entire extracellular domain of human CEACAM1; also called CEACAM1-huFc; recombinant CEACAM1-Fc; not shown: human IgG Fc (huFc)
T5 sequence: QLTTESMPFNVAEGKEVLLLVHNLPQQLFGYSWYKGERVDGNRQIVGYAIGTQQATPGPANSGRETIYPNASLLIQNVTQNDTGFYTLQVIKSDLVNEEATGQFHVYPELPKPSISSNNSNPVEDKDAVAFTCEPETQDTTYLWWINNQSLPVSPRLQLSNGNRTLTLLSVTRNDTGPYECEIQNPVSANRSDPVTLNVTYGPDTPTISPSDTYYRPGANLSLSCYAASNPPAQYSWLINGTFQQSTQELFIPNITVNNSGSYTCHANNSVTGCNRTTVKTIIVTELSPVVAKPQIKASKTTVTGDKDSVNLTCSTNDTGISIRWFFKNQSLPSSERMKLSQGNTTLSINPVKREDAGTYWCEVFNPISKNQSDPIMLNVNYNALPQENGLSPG

human CEACAM3-Fc = biological target: T6, human CEACAM3-Fc (human, UniProt P40198 35-155, limits assumed); test: as above
T6 construct: also called recombinant CEACAM-Fc protein; not shown: human IgG Fc
T6 sequence (looked up): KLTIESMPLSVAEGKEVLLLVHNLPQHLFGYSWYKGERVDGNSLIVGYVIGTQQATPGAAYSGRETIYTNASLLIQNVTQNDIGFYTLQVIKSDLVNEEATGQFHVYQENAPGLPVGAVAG

human CEACAM5-Fc = biological target: T7, human CEACAM5-Fc (human, UniProt P06731 35-685, limits assumed); test: as above
T7 construct: also called recombinant CEACAM-Fc protein; not shown: human IgG Fc
T7 sequence (looked up): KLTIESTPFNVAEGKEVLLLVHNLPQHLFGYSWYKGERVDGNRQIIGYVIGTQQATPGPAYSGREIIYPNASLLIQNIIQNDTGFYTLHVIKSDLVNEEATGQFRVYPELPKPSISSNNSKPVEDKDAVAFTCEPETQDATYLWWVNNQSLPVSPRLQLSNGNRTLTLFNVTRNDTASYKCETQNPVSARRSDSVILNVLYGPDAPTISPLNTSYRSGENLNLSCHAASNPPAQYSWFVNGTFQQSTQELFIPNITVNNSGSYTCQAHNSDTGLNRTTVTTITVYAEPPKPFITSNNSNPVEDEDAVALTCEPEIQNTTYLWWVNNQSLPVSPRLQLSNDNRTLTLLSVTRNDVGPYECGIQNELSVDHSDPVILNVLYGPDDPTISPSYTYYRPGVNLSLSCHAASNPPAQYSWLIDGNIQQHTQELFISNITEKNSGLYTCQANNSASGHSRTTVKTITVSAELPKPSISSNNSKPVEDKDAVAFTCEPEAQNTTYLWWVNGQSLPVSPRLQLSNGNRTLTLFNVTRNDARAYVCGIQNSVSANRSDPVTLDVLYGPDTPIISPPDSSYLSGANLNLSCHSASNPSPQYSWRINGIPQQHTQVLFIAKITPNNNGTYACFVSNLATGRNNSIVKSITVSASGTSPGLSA

human CEACAM8-Fc = biological target: T8, human CEACAM8-Fc (human, UniProt P31997 35-320, limits assumed); test: sandwich ELISA, CC1/3/5-Sab coated, CEACAM-Fc proteins in solution
T8 construct: also called recombinant CEACAM-Fc protein; not shown: human IgG Fc
T8 sequence (looked up): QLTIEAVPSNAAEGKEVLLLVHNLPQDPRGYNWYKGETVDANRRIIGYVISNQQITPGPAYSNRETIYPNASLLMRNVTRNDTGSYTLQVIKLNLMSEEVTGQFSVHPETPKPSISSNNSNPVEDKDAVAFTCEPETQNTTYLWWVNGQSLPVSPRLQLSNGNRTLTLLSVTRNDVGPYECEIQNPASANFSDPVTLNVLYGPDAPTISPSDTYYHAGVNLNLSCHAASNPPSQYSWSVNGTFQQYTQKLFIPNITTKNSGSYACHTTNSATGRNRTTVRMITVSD

human CEACAM6-Fc = biological target: T9, human CEACAM6-Fc (human, UniProt P40199 35-320, limits assumed); test: as above
T9 construct: also called recombinant CEACAM-Fc protein; not shown: human IgG Fc
T9 sequence (looked up): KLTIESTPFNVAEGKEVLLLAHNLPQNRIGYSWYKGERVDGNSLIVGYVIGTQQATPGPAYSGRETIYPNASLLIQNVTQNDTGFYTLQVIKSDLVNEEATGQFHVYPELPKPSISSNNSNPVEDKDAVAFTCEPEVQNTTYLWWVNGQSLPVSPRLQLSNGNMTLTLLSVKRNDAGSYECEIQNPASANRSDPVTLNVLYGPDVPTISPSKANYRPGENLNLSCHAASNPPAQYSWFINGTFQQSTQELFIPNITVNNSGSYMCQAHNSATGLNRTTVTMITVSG

B1: CC1/3/5-Sab (antibody, V domains shown)
VH: EVQLQQSGPELVKPGTSVKMSCKASGYTFTTYVMHWVQQKPGQGLDWIGFFNPYNDGTKYNEKFKGKATLTSDKSSSTAYMELSSLTSEDSAVYYCARWAYDGSYAYWGQGTTLTVSS
VL: DIQMTQSSSYLSVFLGGRVTITCKASDHINNWLAWYQQKPGNAPRLLISGATSLETGVPSRFSGSGSGKDYTLSIISLQTEDVATYYCQQYWRTPFTFGSGTKLEIK
notes: also called mAb CC1/3/5-Sab; CC1/3/4-Sab
- binding result (human CEACAM1): binds
- binding result (human CEACAM3): binds
- binding result (CEACAM1-dN-Fc): no binding (tested: 5 µg/ml)
- binding result [1]: binds
- binding result [2]: binds
- binding result (human CEACAM3-Fc): binds
- binding result (human CEACAM5-Fc): binds
- binding result (human CEACAM8-Fc): no binding (tested: 0.1 µg/ml CEACAM-Fc)
- binding result (human CEACAM6-Fc): no binding (tested: 0.1 µg/ml CEACAM-Fc)
